These results are taken from publication PMC10502012 (2023).

No end group written: not given here. PEG = not defined here; Cy5 = Cy5 dye

The labels stand for the following.
B1: TASL 1-13 M1A (peptide)
chain: ALSEGYLYRIAYL
B2: TASL 3-13 (peptide)
chain: SEGYLYRIAYL
B3: TASL 1-13 L7A (peptide)
chain: MLSEGYAYRIAYL
B4: TASL 1-13 L2A (peptide)
chain: MASEGYLYRIAYL
B5: TASL 1-14 C14A (peptide)
chain: MLSEGYLYRIAYLA
B6: TASL 2-13 (peptide)
chain: LSEGYLYRIAYL
B7: TASL 4-13 (peptide)
chain: EGYLYRIAYL
B8: TASL 1-12 (peptide)
chain: MLSEGYLYRIAY
B9: TASL 1-13-GSGSGS (peptide)
chain: MLSEGYLYRIAYLGSGSGS
B10: TASL 1-13-GS (peptide)
chain: MLSEGYLYRIAYLGS
B11: TASL 1-13 R9A (peptide)
chain: MLSEGYLYAIAYL
B12: TASL 1-13 Y8A (peptide)
chain: MLSEGYLARIAYL
B13: TASL 1-13 S3A (peptide)
chain: MLAEGYLYRIAYL
B14: TASL 1-13 Y6A (peptide)
chain: MLSEGALYRIAYL
B15: TASL 1-13-GSGS (peptide)
chain: MLSEGYLYRIAYLGSGS
B16: TASL peptide with a length of 21 residues (peptide)
chain: MLSEGYLYRIAYLCEDSELCT
B17: TASL peptide with a length of 15 residues (peptide)
chain: MLSEGYLYRIAYLCE
B18: TASL peptide with a length of 17 residues (peptide)
chain: MLSEGYLYRIAYLCEDS
B19: fluorescently labeled TASL_(1-13) peptide (peptide)
chain: MLSEGYLYRIAYL-{PEG-Cy5}
modifications: reading uncertain

Sequence of chicken PHT1 (purified, wild type) (chicken) (chain, as listed by the source): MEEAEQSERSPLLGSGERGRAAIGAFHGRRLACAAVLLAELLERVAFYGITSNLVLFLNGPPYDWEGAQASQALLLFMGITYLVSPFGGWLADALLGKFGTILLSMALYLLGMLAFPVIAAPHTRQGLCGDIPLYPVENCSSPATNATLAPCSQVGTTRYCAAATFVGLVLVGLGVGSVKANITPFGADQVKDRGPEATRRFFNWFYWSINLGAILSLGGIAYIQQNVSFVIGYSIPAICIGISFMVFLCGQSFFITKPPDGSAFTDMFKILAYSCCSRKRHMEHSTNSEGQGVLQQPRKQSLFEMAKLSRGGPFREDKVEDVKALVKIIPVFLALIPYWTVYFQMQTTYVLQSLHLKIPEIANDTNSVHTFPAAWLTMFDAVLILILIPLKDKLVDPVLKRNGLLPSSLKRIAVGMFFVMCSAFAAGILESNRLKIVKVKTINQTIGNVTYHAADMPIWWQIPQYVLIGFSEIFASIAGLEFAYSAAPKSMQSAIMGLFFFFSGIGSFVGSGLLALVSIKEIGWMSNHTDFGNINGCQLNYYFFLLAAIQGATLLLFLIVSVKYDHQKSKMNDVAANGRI

The first experiment concerns the target chicken PHT1 (purified, wild type) (chicken).
Experiment: not given
On to B1, for which the affinity, expressed as Kd, was 15400 nM. B2: the affinity, expressed as Kd, was 7630 nM. The molecule B3 showed a Kd of 310 nM.

Consider B4, for which the Kd stood at 7280 nM.

With B5, the affinity, expressed as Kd, was 400 nM. The same measure, in the same setting: under B6 stands 9110 nM. In the case of B7, binding was characterised by a dissociation constant (Kd) of 10500 nM. With B8, the Kd amounted to 1740 nM.

For B9, the dissociation constant (Kd) was 410 nM.

B10 registered a Kd of 710 nM. In turn, B11 had a Kd of 3360 nM. The molecule B12 yielded a Kd of 2120 nM. Still for that read-out and setting: then B13, with 690 nM; and B14, with 1530 nM. On the same count and under the same terms, then B15, with 580 nM.

For another experiment the target is unchanged.
Experiment: not given
The source holds these as a separate data set.
B16: the Kd amounted to 4050 nM. Still for that read-out and setting: then B17, with 1760 nM.

On to B18, for which the affinity, expressed as Kd, was 1350 nM.

For a further experiment the target is unchanged. The experiment can be described thus: MST.
In the case of B19, the Kd amounted to 361 nM.
